The supplement of paper PMC9170038

Tested on: MS2 coat protein
Assay: apparent KD of MS2 coat protein; designed switch direction (-1 OFF switch, 1 ON switch): -1; higher = weaker reporter binding
In short: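 Each step of the titration lasted 0.8–1.5 h at the lowest concentration and 10–20 min at the highest. The protein, SNAP-549-labelled MS2 coat protein, went from 0.7 or 1.5 nM doubling to 3 µM over RNA switches transcribed on Illumina chips by stalled E. coli RNA polymerase. Normalised cluster fluorescence was curve-fitted, and the per-design median over clusters is given as apparent KD.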

[1] = Eterna round: R95, input ligand: microRNA oligo, concentration not stated
[2] = input ligand: microRNA oligo, concentration not stated
[3] = Eterna round: R95, input ligand: FMN 200 uM
[4] = Eterna round: R95, input ligand: none

| Sequence | apparent KD of MS2 coat protein (input ligand: FMN 200 uM) | apparent KD of MS2 coat protein (input ligand: none) | apparent KD of MS2 coat protein [1] | apparent KD of MS2 coat protein [2] | further results |
| --- | --- | --- | --- | --- | --- |
| UAGAAAGAAGUCAGGAUAUCAUGAGUUGCAGCUCAUGAGAAGGGACAUGAGGAUCACCCAUGUAACACGCCUCU [Eternabot (L2) Solution 62] (Eterna round: R97, puzzle: Brourd's mod of Exclusion 4) | 28.9 nM | 24.8 nM |  |  |  |
| UAGAAUCGAGGAUAUACAUGAGGAUCACCCAUGUGUUGCCGCAUGAUGUGAUCGUCAGGUAGAAGGCGAUUAUA [Exclusion 3 - Mod of Jieux's Gilly Gone Silly 23 v.7] (puzzle: Exclusion 3) |  |  | 35.4 nM |  |  |
| UAGCAUUGCCAAAGGUAGUGCAAAACAUGAGGAUCACCCAUGUAGGAUAUGGUAGGCAAAGCUUACCAGAAGGACAUGAUAAUU [Mat - Exclusion NG 3 - Mod of JL - D17] (Eterna round: R96, puzzle: Exclusion NG 3) | 204 nM | 51.5 nM |  | 46.3 nM |  |
| UAGGAGUCAGGAUAUGCGAGAGAUUGAAGUAUGGGAUGUGAGCAGAAGGGACAUGAGGAUCACCCAUGUAUGGA [JR_Exclu4_Sub093] (puzzle: Exclusion 4) |  |  | 146 nM |  |  |
| UAGGUGCAAGGAUAUCGCCCGGAAGACAUGAGGAUCACCCAUGUACCGGGUGAGUAUGGGCGAGAAGGUGCAUAUU [Usergete] (puzzle: Exclusion 5) |  |  | 75.9 nM |  | apparent KD of MS2 coat protein [3]: 298 nM; apparent KD of MS2 coat protein [4]: 92 nM |
| UAGUAAAAGGUGAGGAUAUCCGCAAUAAAACGUGAGGAGAAGGCACAUGAGGAUCACCCAUGUAGGGUAUCAAA [BmEX4 A.17] (Eterna round: R97, puzzle: Brourd's mod of Exclusion 4) | 421 nM | 450 nM |  |  |  |
| UAGUACAGAGGAUAUACAUGAGGAUCACCCAUGUGUUUCAGCUAGGAGACUAGCGAAAGUAGAAGGCUGUACUU [salish99_ex3_r4_009] (Eterna round: R97, puzzle: Exclusion 3) | 22.4 nM | 8.4 nM |  |  |  |
| UAGUGGCAAGGAUAUACAGAGGAGAGGAUUGCAAGAGGUGGACAUGAGGAUCACCCAUGUAGAAGGUGCAGAGA [JR_Exclu2_Sub022] (puzzle: Exclusion 2) |  |  | 252 nM |  |  |
| UAGUUAAACACAGGAUAUCGCCUCUUAUUACAUGAGGAUCACCCAUGUUUAGUUAGUUACAUGUUCGAGAAGGGUGAAGUAGUU [JR_ExcNG2_Sub041] (Eterna round: R96, puzzle: Exclusion NG 2) | 793 nM | 555 nM |  | 1300 nM |  |
| UAUAAAACAUAGGAUAUCGAAAUUAUCAUUUAACGAGAAGGAUGAACAUGAGGAUCACCCAUGUGGUAUCAUGG [Mat - Exclusion 6 - JL Mod - D10] (Eterna round: R96, puzzle: Exclusion 6) |  |  |  | 328 nM |  |
| UAUAAAACAUAGGAUAUCGAAAUUAUCAUUUAACGAGAAGGAUGAACAUGAGGAUCACCCAUGUGGUAUCAUGG [Mat - Exclusion 6 - JL Mod - D10] (puzzle: Exclusion 6) |  |  | 425 nM |  | apparent KD of MS2 coat protein [3]: 370 nM; apparent KD of MS2 coat protein [4]: 238 nM |
| UAUAAAAUAUAGGAUAUCGAAUAUAUUAUUUAACGAGAAGGAUGAACAUGAGGAUCACCCAUGUGGUAUCAUGG [Mat - Exclusion 6 - JL Mod - D37] (puzzle: Exclusion 6) |  |  | 255 nM |  | apparent KD of MS2 coat protein [3]: 199 nM; apparent KD of MS2 coat protein [4]: 415 nM |
| UAUAUAUAGUAAGGAUAUGUAAUUAUAUUAUAAACAGAAGGUACUGACAUGAGGAUCACCCAUGUUUUAGUGUGGGCAUGUAGA [JMF's solution 38] (Eterna round: R96, puzzle: Exclusion NG 1) | 85.9 nM | 97.7 nM |  | 60.1 nM |  |
| UAUAUAUAGUAAGGAUAUGUAAUUAUUCUAUAAACAGAAGGUACUGACAUGAGGAUCACCCAUGUUUUAGUGUGGGCAUGUAGA [JMF's solution 40] (Eterna round: R96, puzzle: Exclusion NG 1) |  |  |  | 33.8 nM |  |
| UAUAUAUAGUAAGGAUAUGUAUAUACUUUAUAAACAGAAGGUACUGACAUGAGGAUCACCCAUGUUUUAGUGUGGGCAUGUAGA [JMF's solution 57] (Eterna round: R96, puzzle: Exclusion NG 1) |  |  |  | 57.1 nM |  |
| UAUAUAUAGUAAGGAUAUGUAUAUAUUUUAUAAACAGAAGGUACUGACAUGAGGAUCACCCAUGUUUUAGUGUGGGCAUGUAGA [JMF's solution 7] (Eterna round: R96, puzzle: Exclusion NG 1) |  |  |  | 57.5 nM |  |
| UAUAUAUAGUAAGGAUAUGUAUUAAUUUUUUAAACAGAAGGUACUGACAUGAGGAUCACCCAUGUUUUAGUGUGGGCAUGUAGA [JMF's solution 86] (Eterna round: R96, puzzle: Exclusion NG 1) |  |  |  | 65.7 nM |  |

| Sequence | apparent KD of MS2 coat protein (input ligand: FMN 200 uM) | apparent KD of MS2 coat protein (input ligand: none) | apparent KD of MS2 coat protein [1] | apparent KD of MS2 coat protein [2] | further results |
| --- | --- | --- | --- | --- | --- |
| UAUAUAUAGUAAGGAUAUGUAUUUAUGUUAUAAACAGAAGGUACUGACAUGAGGAUCACCCAUGUUUUAGUGUGGGCAUGUAGA [JMF's solution 16] (Eterna round: R96, puzzle: Exclusion NG 1) |  |  |  | 76.3 nM |  |
| UAUAUGUCAGGAUAUUAGUAGUAAAUGAAUAAAAUUAUUACUGAGAAGGGACAUGAGGAUCACCCAUGUGCCUU [Mat - Exclusion 4 - Eli Mod - D23] (Eterna round: R97, puzzle: Exclusion 4) | 20.6 nM | 16.6 nM |  |  |  |
| UAUCAACAUGAGGAUCACCCAUGUGAGGAUAUCAAAACCAGAGCGGAUCUCUGGCCCAUGAGAAGGUACAUGGU [ElNandoxlusion 6 - Jieux - Exclusion 1] (Eterna round: R97, puzzle: Exclusion 1) | 111 nM | 22.3 nM |  |  |  |
| UAUCAUCAUGUAGGAUAUGCGUGGCAAAGCUAUGCAGAAGGACAUGAGGAUCACCCAUGUUCUAGCGUCUGAGUACAGAUGCUA [Mat - Exclusion NG 1 - Mod of JL - D75] (Eterna round: R96, puzzle: Exclusion NG 1) | 278 nM | 83.7 nM |  | 66.4 nM |  |
| UAUCGGCGGACCGAGGCUUUUUGCUCGUCUUAUGCUAUGACAUGAGGAUCACCCAUGUGGUGGUGGUCCGUUGUAGU [JL ViennaUCT Bitein mod 10] (puzzle: Sensor v3, turn-off variant 2) |  |  | 12.6 nM |  | apparent KD of MS2 coat protein [3]: 64.5 nM; apparent KD of MS2 coat protein [4]: 48.1 nM |
| UAUCUACAUGUAGGAUAUGCGUGGCGAAGCUAUGCAGAAGGACAUGAGGAUCACCCAUGUUUUAGCGUCUGCGUACAGAUGCGU [JL ENG1 1.48] (Eterna round: R96, puzzle: Exclusion NG 1) | 149 nM | 23.2 nM |  | 16.4 nM |  |
| UAUGAUUUAGGAUAUUGUACUGCUGACAUGAGGAUCACCCAUGUAUGCUAACUCGGCCGUCGAGAAGGAGAUUAUG [BotMod 29 - Jieux - Exclusion 5] (Eterna round: R97, puzzle: Exclusion 5) | 37.9 nM | 39.4 nM |  |  |  |
| UAUGGUUAAGUCAGGAUAUACUAAUAGAAGUCUGUGUAGAAGGGACAUGAGGAUCACCCAUGUAUGGUAGUGUU [Ex4 #60] (Eterna round: R97, puzzle: Brourd's mod of Exclusion 4) | 119 nM | 122 nM |  |  |  |
| UAUGGUUAAGUCAGGAUAUGCUCAUAGAGGUCUAUGCAGAAGGGACAUGAGGAUCACCCAUGUAUGGUCGUGUU [Ex4 #64] (Eterna round: R97, puzzle: Brourd's mod of Exclusion 4) | 84.6 nM | 53.6 nM |  |  |  |
| UAUGUGUGAGGAUAUGGUAAAGAUAAGAUGAUGAAAGAACUCCAGAAGGCACAUGAGGAUCACCCAUGUAGAUA [Mat - Exclusion 4 - Mod of JL - D23] (puzzle: Exclusion 4) |  |  | 20.4 nM |  |  |
| UAUUAAACAAGCAGGUCCCACAUGAGGAUCACCCAUGUGCUCGUCUUAUAAGGUACUGUGAUGAAAGUUACGGUACC [Elimod 17 - Jieux - Sensor, turn-off variant 1] (Eterna round: R97, puzzle: Sensor, turn-off variant 1) | 36.4 nM | 46.2 nM |  |  |  |
| UAUUAACAAGCAAGAUCCCACAUGAGGAUCACCCAUGUGCUCGUCUUAUAAGGUACUGUGACGAAAGUCACGGUACC [Sensor 3, v1 - 80] (puzzle: Sensor v3, turn-off variant 1) |  |  | 580 nM |  | apparent KD of MS2 coat protein [3]: 26.5 nM; apparent KD of MS2 coat protein [4]: 28 nM |
| UAUUAACAAGCUAGGUCCCACAUGAGGAUCACCCAUGUGCUCGUCUUAUAAGGUACUGUGACGAAAGUCACGGUACC [Sensor 3, v1 - 79] (Eterna round: R96, puzzle: Sensor v3, turn-off variant 1) | 30.2 nM | 38.4 nM |  | 464 nM |  |
| UAUUAACAAGCUAGGUCCCACAUGAGGAUCACCCAUGUGCUCGUCUUAUAAGGUACUGUGACGAAAGUCACGGUACC [Sensor 3, v1 - 79] (puzzle: Sensor v3, turn-off variant 1) |  |  | 909 nM |  | apparent KD of MS2 coat protein [3]: 30 nM; apparent KD of MS2 coat protein [4]: 31.5 nM |
| UAUUAACAAGUAAGAUCCCACAUGAGGAUCACCCAUGUUCGUCUUAUAGGUACUGUGACACAAAGUGUCACGGUACC [Mod of Eli's R95 Sensor 3, v1 - 87] (Eterna round: R97, puzzle: Sensor, turn-off variant 1) | 36.9 nM | 44.9 nM |  |  |  |
| UAUUAACAUGUAGGAUAUCUGCACGAUUAGUGCAGAGAAGGACAUGAGGAUCACCCAUGUAGAUCAUAAUAAUUUAAUUUAAUU [ENG1/6-D1] (Eterna round: R96, puzzle: Exclusion NG 1) |  |  |  | 106 nM |  |
